Source: paper PMC8200818, “SPECT/CT Imaging, Biodistribution and Radiation Dosimetry of a ^177Lu-DOTA-Integrin αvβ6 Cystine Knot Peptide in a Pancreatic Cancer Xenograft Model” (Frontiers in Oncology, 2021)
Entries after “also recorded” stand apart in the source; their conditions may differ.

Assays:
[1] = system: Capan-2 xenografts; test: in vivo; details: for Kidney uptake / Blood activity: ~1 MBq i.v.
Source text: (§1) For in vivo experiments, at least 8-week-old female athymic NMRI-Foxn1^nu/Foxn1^nu mice (Janvier Labs, Saint-Berthevin, France) were used. Animal care followed institutional guidelines and all experiments were approved by local animal research authorities. For the generation of tumor xenografts, 5 x 10^6 cells of Capan-2 cells were inoculated subcutaneously into the left and right shoulder (1:1 phosphate-buffered saline [PBS]/Matrigel Basement Membrane Matrix High Concentration, Corning, Corning, USA). Tumors were allowed to grow for two to four weeks (tumor volume > 100 mm^3) after cell inoculation.
(§2) Radiolabeling of the DOTA-integrin αvβ6 knottin was carried out manually using [^177Lu]LuCl3 and a reagent kit from ITG Isotope Technologies Garching GmbH (Garching, Germany). A total of 40 µL (stock solution of peptide at 1 µg/µL in 10% DMSO in water) was added to 500 µL of ascorbate buffer solution pH 5.0, prepared from the kit (composition not disclosed by vendor) and the resulting mixture was then added to 35 µL of [^177Lu]LuCl3 (2 GBq in aqueous 0.04 M HCl) and the reaction mixture was heated at 80 °C for 35 minutes followed by cooling for 10 minutes at room temperature. The product was then diluted with 0.5 mL of saline and the pH was adjusted to 7 using a 1 M aqueous solution of NaHCO3 prior to injection in mice. A reverse-phase HPLC system (Knauer GmbH, Germany) with a column (Eurospher II, C18, 250 × 4 mm) was used to determine the radiochemical purity of the radiotracer. The HPLC system was equipped with an Azura P.6.1L pump coupled with ultraviolet (Azura UVD 2.1L) and radiometric (γ-Raytest-Isotopenmessgeraete GmbH, Germany) detectors. The gradient elution system used mobile phase A (100% acetonitrile) and mobile phase B (deionized H2O containing 0.1% trifluoroacetic acid) and a flow rate of 1.0 mL/min. Starting with 0% A and 100% B, the gradient was increased to 100% A over 25 min and finally returned to initial gradient conditions within 5 min.
Tumor-bearing mice (n=4-5 per time point) were injected with approximately 1 MBq (22 pmol) of ^177Lu-DOTA-integrin αvβ6 knottin to the tail vein via a catheter. Mice (n=4-5 per time point) were sacrificed and dissected one, two, three and eight days post injection. Tumor, blood, stomach, pancreas, small intestine, colon, liver, spleen, kidney, heart, lung, muscle and femur samples were weighed and uptake of radioactivity was measured by a gamma counter.

[2] = biological target: T1, integrin αvβ6 (BxPC-3 cells) (Homo sapiens, UniProt P06756+P18564); test: Competition binding assay, BxPC-3
T1 construct: endogenous in cells; host or cells: BxPC-3 (whole adherent cells)
T1 sequence (P06756 31-889 limits assumed): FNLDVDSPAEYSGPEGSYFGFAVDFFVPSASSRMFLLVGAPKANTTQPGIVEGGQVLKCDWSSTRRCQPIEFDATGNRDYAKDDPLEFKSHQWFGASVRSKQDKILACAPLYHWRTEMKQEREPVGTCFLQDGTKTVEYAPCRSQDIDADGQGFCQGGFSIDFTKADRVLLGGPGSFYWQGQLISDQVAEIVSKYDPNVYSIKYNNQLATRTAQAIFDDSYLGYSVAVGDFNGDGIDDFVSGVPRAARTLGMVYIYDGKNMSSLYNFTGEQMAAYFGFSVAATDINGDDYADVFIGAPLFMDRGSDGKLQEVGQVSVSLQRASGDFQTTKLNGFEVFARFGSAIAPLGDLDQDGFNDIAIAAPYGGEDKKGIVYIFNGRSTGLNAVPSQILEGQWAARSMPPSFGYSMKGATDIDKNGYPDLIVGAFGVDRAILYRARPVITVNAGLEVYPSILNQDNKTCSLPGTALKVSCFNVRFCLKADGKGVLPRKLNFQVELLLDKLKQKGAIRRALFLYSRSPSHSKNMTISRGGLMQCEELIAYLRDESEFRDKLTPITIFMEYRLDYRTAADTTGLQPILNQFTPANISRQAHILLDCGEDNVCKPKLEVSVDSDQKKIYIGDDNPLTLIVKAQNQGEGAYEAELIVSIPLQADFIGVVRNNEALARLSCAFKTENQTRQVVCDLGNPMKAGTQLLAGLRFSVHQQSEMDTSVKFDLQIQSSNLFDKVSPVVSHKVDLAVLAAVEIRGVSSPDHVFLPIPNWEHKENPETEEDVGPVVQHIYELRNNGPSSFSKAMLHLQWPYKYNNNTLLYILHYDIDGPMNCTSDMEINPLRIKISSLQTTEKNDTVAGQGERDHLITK
T1 sequence (P06756 891-1048 partner limits assumed): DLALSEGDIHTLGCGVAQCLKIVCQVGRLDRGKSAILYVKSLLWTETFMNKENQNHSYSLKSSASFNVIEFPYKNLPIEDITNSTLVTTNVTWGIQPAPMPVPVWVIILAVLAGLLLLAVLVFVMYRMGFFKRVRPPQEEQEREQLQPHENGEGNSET
T1 sequence (P18564 22-788): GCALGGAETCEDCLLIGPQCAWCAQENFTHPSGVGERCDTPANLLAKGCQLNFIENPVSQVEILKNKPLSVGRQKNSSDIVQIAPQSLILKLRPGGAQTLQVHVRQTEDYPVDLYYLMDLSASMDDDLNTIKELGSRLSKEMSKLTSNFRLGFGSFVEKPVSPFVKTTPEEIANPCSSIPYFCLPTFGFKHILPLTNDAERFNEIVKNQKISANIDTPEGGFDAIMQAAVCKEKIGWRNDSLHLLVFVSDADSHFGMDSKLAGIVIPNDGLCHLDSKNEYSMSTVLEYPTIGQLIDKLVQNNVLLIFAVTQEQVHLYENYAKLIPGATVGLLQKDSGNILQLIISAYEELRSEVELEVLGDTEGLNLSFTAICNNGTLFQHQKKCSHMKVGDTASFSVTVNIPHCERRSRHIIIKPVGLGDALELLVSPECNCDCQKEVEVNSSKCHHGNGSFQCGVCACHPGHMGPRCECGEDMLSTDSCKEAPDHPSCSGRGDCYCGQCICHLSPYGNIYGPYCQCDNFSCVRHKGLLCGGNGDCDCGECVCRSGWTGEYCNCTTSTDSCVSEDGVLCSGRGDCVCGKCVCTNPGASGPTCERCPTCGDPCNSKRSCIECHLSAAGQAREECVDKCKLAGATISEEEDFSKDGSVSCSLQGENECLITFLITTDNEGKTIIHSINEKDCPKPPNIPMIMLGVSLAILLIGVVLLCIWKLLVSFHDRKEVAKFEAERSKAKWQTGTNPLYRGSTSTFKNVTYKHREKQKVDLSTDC
Protocol: The reaction volume was made up to 30 µl with water. The reaction was carried out for 10 minutes at 80°C.
For competitive radioligand binding assay, approximately 50,000 cells (BxPC-3 or Capan-2) per well were seeded in a 96 well plate incubated overnight at 37°C. […] After 2 hours of incubation, cells were washed for 2-3 times with ice-cold washing buffer (50 mM Tris-HCl, pH 7.4, 125 mM NaCl, 0.05% BSA) and lysed with 1 N NaOH (80 µl/well). The lysed cells were transferred to vials and measured in a gamma counter (Wallac 1470 Wizard, Perkin Elmer, Waltham, MA, USA). Obtained cpm values were plotted with GraphPad Prism and the data fitted using nonlinear regression (one site - fit Ki, one site - fit logIC50).
All statistical analyses were performed using GraphPad Prism 5.04. IC50 values were determined by nonlinear sigmoidal curve fitting with variable slope setting. All presented data are based on independent experiments. Numerical data for this study have been deposited in an open data repository for public access: http://doi.org/10.5281/zenodo.4362503.

[3] = system: Capan-2 xenografts
Source text: as §1, §2
SPECT and CT imaging were performed using the nanoSPECT/CTplus scanner (Mediso, Hungary/Bioscan, France). […]

[4] = 192 h p.i., nude mice, Capan-2 xenografts, mean ± SD (4 ≤ n ≤ 5)

`CC[C@H](C)[C@@H]1NC(=O)[C@@H](NC(=O)CNC(=O)CN2CCN(CC(=O)O)CCN(CC(=O)O)CCN(CC(=O)O)CC2)CSSC[C@@H]2NC(=O)[C@H](C)NC(=O)CNC(=O)[C@@H]3CCCN3C(=O)[C@@H]3CSSC[C@@H](C(=O)NCC(=O)O)NC(=O)[C@H](Cc4ccc(O)cc4)NC(=O)CNC(=O)[C@H](CC(N)=O)NC(=O)CNC(=O)[C@H](CCCNC(=N)N)NC(=O)[C@H](CSSC[C@H](NC(=O)[C@H](CCCNC(=N)N)NC(=O)[C@H](Cc4ccccc4)NC(=O)[C@H](CC(C)C)NC(=O)[C@H](CC(C)C)NC(=O)[C@H]([C@@H](C)O)NC(=O)CNC(=O)[C@H](CC(C)C)NC(=O)[C@H](CC(=O)O)NC(=O)[C@H]([C@@H](C)O)NC(=O)[C@H](CCCNC(=N)N)NC(=O)CNC(=O)[C@H](CC(N)=O)NC(=O)[C@H](CC(C)C)NC1=O)C(=O)N[C@@H](CCCNC(=N)N)C(=O)N[C@@H](CCCNC(=N)N)C(=O)N[C@@H](CC(=O)O)C(=O)N[C@@H](CO)C(=O)N[C@@H](CC(=O)O)C(=O)N3)NC(=O)[C@H]([C@@H](C)CC)NC2=O` [^177Lu-DOTA-integrin αvβ6 knottin, metal not drawn] was tested, and the Tumor uptake ([1]; 24 h p.i., ~1 MBq (22 pmol) i.v., nude mice, Capan-2 xenografts, mean ± SD (4 ≤ n ≤ 5)) was 3.13 ± 0.63 %IA/g, the Kidney uptake ([1]; 24 h p.i., nude mice, Capan-2 xenografts, mean ± SD (4 ≤ n ≤ 5)) was 19.2 ± 2.5 %IA/g and the Blood activity ([1]; 48 h p.i., nude mice, Capan-2 xenografts, mean ± SD (4 ≤ n ≤ 5)) was 0.00 %IA/g. The Blood activity [1, 4] was 0.00 %IA/g, the Kidney uptake [1, 4] was 2.3 ± 0.40 %IA/g and the “Tumor uptake compared with ^64Cu conjugate” value ([1]; comparison with earlier study, cited there as [19]) was “tumor uptake was not found to be higher”. The “Kidney wash-out versus tumor (ex vivo)” value ([1]; days 1, 2, 3 and 8 p.i., listed as 177Lu tracer) was “in the tumor the activity was cleared at a much lower rate than in the kidney”, the “Activity in organs like stomach, colon and lung” value ([1]; later time points) was “low or moderate activity” and the “Binding affinity of the ^177Lu tracer” value [2] was “low single-digit nanomolar range; also recorded: high affinity and specific binding to target-positive cells and tumors”. For the same compound, the “Tracer accumulation (SPECT MIP)” value ([3]; 22 h p.i., 62 MBq i.v.) was “accumulation of ^177Lu-DOTA-integrin αvβ6 knottin in both the tumors and the kidneys”, the “Uptake by other organs (SPECT)” value ([3]; 22 h p.i., 62 MBq i.v.) was “low or moderate” and the “Initial kidney accumulation (SPECT)” value ([3]; kidney versus tumor, up to 3 h p.i.) was “higher initial accumulation”.
